Data published in patent US20090202556A1 (Kyowa Kirin, published 2009).

How the values were obtained:
[1] = molecular target: T1, human CLDN4 (Claudin-4) expressed by human cancer cell lines (Capan-2, HPAF-II, MCF7, HT-29, SW480, 22Rv1, DU … (human, UniProt O14493 1-209)); assay: FCM on live Capan-2 and HPAF-II cells, 8.6 µg/ml
T1 construct: Endogenous protein on cell lines; MCF7 is said to express both CLDN3 and CLDN4; also called CLDN4 expressed in breast cancer cells, colorectal cancer cells and prostate cancer cells
T1 sequence: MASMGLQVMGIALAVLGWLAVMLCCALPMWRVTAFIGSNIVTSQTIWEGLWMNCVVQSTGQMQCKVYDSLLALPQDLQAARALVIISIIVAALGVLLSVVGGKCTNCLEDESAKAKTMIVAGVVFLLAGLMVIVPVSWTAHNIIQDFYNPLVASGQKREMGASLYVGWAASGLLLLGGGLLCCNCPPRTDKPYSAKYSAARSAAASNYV
Method: Human pancreatic cancer cell lines Capan-2 and HPAF-II human lymphoma cell line Daudi (ATCC CCL-213), human breast cancer cell line MCF7 (ATCC HTB-22), human colorectal cancer cell lines HT-29 (ATCC HTB-38) and SW480 (ATCC CCL-228) and human prostate cancer cell line s 22Rv1 (ATCC CRL-2505), DU 145 (ATCC HTB-81) and PC-3 (ATCC CRL-1435) were cultured for 3 to 4 days, and adhered cells were peeled off using 0.02% EDTA solution (manufactured by Nacalai Tesque) to recover the cells. The thus recovered cells were washed with PBS and, in order to prevent nonspecific adsorption of antibodies, blocked at ice temperature for 30 minutes using BSA-PBS. The cells were dispensed at 1 to 5×10⁵ cells/100 μl BSA-PBS into a 96-well U bottom plate and centrifuged (1,500 rpm, 5 minutes), the supernatant was removed and then a mouse anti-serum to be immunized, a culture supernatant of hybridoma KM3900 (8.6 μg/ml), anti-CLDN4 monoclonal antibodies KM3900 and KM3907 diluted to 5 μg/ml or a mouse IgG2a isotype control (manufactured by DAKO) was dispensed as the primary antibody at 100 μl/well and allowed to react at ice temperature for 60 minutes. […] After the reaction, the cells were washed once with BSA-PBS and suspended in PBS, and the fluorescent intensity was measured by FCM (manufactured by Beckman Coulter). […]

[2] = molecular target: T1, human CLDN4 (Claudin-4) expressed by …; assay: FCM on live cancer cell lines, 5 µg/ml
Method: Human pancreatic cancer cell lines Capan-2 and HPAF-II human lymphoma cell line Daudi (ATCC CCL-213), human breast cancer cell line MCF7 (ATCC HTB-22), human colorectal cancer cell lines HT-29 (ATCC HTB-38) and SW480 (ATCC CCL-228) and human prostate cancer cell line s 22Rv1 (ATCC CRL-2505), DU 145 (ATCC HTB-81) and PC-3 (ATCC CRL-1435) were cultured for 3 to 4 days, and adhered cells were peeled off using 0.02% EDTA solution (manufactured by Nacalai Tesque) to recover the cells. The thus recovered cells were washed with PBS and, in order to prevent nonspecific adsorption of antibodies, blocked at ice temperature for 30 minutes using BSA-PBS. The cells were dispensed at 1 to 5×10⁵ cells/100 μl BSA-PBS into a 96-well U bottom plate and centrifuged (1,500 rpm, 5 minutes), the supernatant was removed and then a mouse anti-serum to be immunized, a culture supernatant of hybridoma KM3900 (8.6 μg/ml), anti-CLDN4 monoclonal antibodies KM3900 and KM3907 diluted to 5 μg/ml or a mouse IgG2a isotype control (manufactured by DAKO) was dispensed as the primary antibody at 100 μl/well and allowed to react at ice temperature for 60 minutes. […] After the reaction, the cells were washed once with BSA-PBS and suspended in PBS, and the fluorescent intensity was measured by FCM (manufactured by Beckman Coulter).

B1: anti-CLDN4 monoclonal antibody KM3900 produced by hybridoma KM3900 (FERM BP-10751) (antibody, V domains shown)
VH: EVQLQQSGPELVKPGASVKISCKASGYTFTDYYMNWVKQSHGKSLEWIGDVVPNNGVPTYNQKFKGKATLTVDKSSSTAYMELRSLTSEDSAVYYCARPHYYYAGRSGAMDYWGQGTSVTVSS
VL: QIVLTQSPAIMSASLGERVTMTCTASSTVSSTYLHWYQQKPGSSPKLWIYSTSNLASGVPARFSGSGSGTSYSLTISSMEAEDAATYYCHQYHRSPPTFGGGTKLEIK
notes: Used as hybridoma culture supernatant (8.6 µg/ml) or purified antibody (5 µg/ml); also called anti-CLDN4 mouse antibody KM3900
[1]
  binding result: binds

B2: anti-CLDN4 monoclonal antibody KM3907 produced by hybridoma KM3907 (FERM BP-10885) (antibody, mouse IgG2a, V domains shown)
VH: QVQLQQSGPELVKPGASVKISCKASGYAISTSWMNWVKQRPGKGLEWIGRINPGDGNTNYNGKFMAKATLTADKPSSTAYMQLSSLTSEDSAVYFCTRGDRWSGAMDYWGQGTSVTVSS
VL: GNVLTQSPAIMSASPGEKVTMTCRASSSVSSSYLHWYQQKSGASPKLWIYSTSNLASGVPVRFSGSGSGTSYSLTISSVEAEDAATYYCQQYSGFPLTFGAGTKLELK
[2]
  binding result: binds
